Measured values: the supplement of paper PMC9112550, “Optimization of the antimicrobial peptide Bac7 by deep mutational scanning” (BMC Biology, 2022)

Test system: Escherichia coli TOP10
Test: shrunken log2 fold change of peptide-encoding DNA abundance (4.5 h post-induction vs induction); higher = less antimicrobial activity (less host growth inhibition)
Conditions: time post-induction: 4.5 h; library: site-saturation at positions 5, 18, 19, 20
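Note: peptides expressed intracellularly from a pBAD plasmid library in pooled LB shake-flask culture, induced with 0.3% L-arabinose, DNA abundance read by NGS, three biological replicates, DESeq2 with apeglm shrinkage.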

## RRIRTRPPRLPRPRPRPENYPRP
  shrunken log2 fold change: -0.00973

## RRIRTRPPRLPRPRPRPEQFPRP
  shrunken log2 fold change: -0.0905

## RRIRTRPPRLPRPRPRPERNPRP
  shrunken log2 fold change: -0.201

## RRIRTRPPRLPRPRPRPERVPRP
  shrunken log2 fold change: 0.296

## RRIRTRPPRLPRPRPRPESIPRP
  shrunken log2 fold change: -0.114

## RRIRTRPPRLPRPRPRPESYPRP
  shrunken log2 fold change: -0.0242

## RRIRTRPPRLPRPRPRPETNPRP
  shrunken log2 fold change: 0.402

## RRIRTRPPRLPRPRPRPETTPRP
  shrunken log2 fold change: 0.285

## RRIRTRPPRLPRPRPRPEVWPRP
  shrunken log2 fold change: 0.546

## RRIRTRPPRLPRPRPRPEYHPRP
  shrunken log2 fold change: -0.00732

## RRIRTRPPRLPRPRPRPEYMPRP
  shrunken log2 fold change: -0.263

## RRIRTRPPRLPRPRPRPFAIPRP
  shrunken log2 fold change: 0.061

## RRIRTRPPRLPRPRPRPFANPRP
  shrunken log2 fold change: -0.116

## RRIRTRPPRLPRPRPRPFCCPRP
  shrunken log2 fold change: -0.309

## RRIRTRPPRLPRPRPRPFCGPRP
  shrunken log2 fold change: -0.0697

## RRIRTRPPRLPRPRPRPFCIPRP
  shrunken log2 fold change: -0.361

## RRIRTRPPRLPRPRPRPFDHPRP
  shrunken log2 fold change: -0.301

## RRIRTRPPRLPRPRPRPFDPPRP
  shrunken log2 fold change: -0.112

## RRIRTRPPRLPRPRPRPFEKPRP
  shrunken log2 fold change: -0.0979

## RRIRTRPPRLPRPRPRPFELPRP
  shrunken log2 fold change: -0.0363

## RRIRTRPPRLPRPRPRPFFHPRP
  shrunken log2 fold change: -0.158

## RRIRTRPPRLPRPRPRPFFQPRP
  shrunken log2 fold change: 0.0474

## RRIRTRPPRLPRPRPRPFFTPRP
  shrunken log2 fold change: -0.118

## RRIRTRPPRLPRPRPRPFGCPRP
  shrunken log2 fold change: -0.0582

## RRIRTRPPRLPRPRPRPFHNPRP
  shrunken log2 fold change: -0.31

## RRIRTRPPRLPRPRPRPFIDPRP
  shrunken log2 fold change: -1.15

## RRIRTRPPRLPRPRPRPFKAPRP
  shrunken log2 fold change: 0.0168

## RRIRTRPPRLPRPRPRPFKPPRP
  shrunken log2 fold change: -0.0194

## RRIRTRPPRLPRPRPRPFLAPRP
  shrunken log2 fold change: -0.0751

## RRIRTRPPRLPRPRPRPFLEPRP
  shrunken log2 fold change: -0.417

## RRIRTRPPRLPRPRPRPFLHPRP
  shrunken log2 fold change: -0.524

## RRIRTRPPRLPRPRPRPFLTPRP
  shrunken log2 fold change: 0.153

## RRIRTRPPRLPRPRPRPFPRPRP
  shrunken log2 fold change: 0.0242

## RRIRTRPPRLPRPRPRPFQVPRP
  shrunken log2 fold change: -0.0305

## RRIRTRPPRLPRPRPRPFRHPRP
  shrunken log2 fold change: 0.00803

## RRIRTRPPRLPRPRPRPFTCPRP
  shrunken log2 fold change: 0.0121

## RRIRTRPPRLPRPRPRPFTMPRP
  shrunken log2 fold change: -0.348

## RRIRTRPPRLPRPRPRPFTYPRP
  shrunken log2 fold change: -0.00136

## RRIRTRPPRLPRPRPRPFVNPRP
  shrunken log2 fold change: -0.223

## RRIRTRPPRLPRPRPRPFYHPRP
  shrunken log2 fold change: -0.486

## RRIRTRPPRLPRPRPRPFYYPRP
  shrunken log2 fold change: -0.55

## RRIRTRPPRLPRPRPRPGADPRP
  shrunken log2 fold change: 0.301

## RRIRTRPPRLPRPRPRPGDLPRP
  shrunken log2 fold change: -0.0395

## RRIRTRPPRLPRPRPRPGGNPRP
  shrunken log2 fold change: -0.264

## RRIRTRPPRLPRPRPRPGIPPRP
  shrunken log2 fold change: -0.394

## RRIRTRPPRLPRPRPRPGKFPRP
  shrunken log2 fold change: -0.0892

## RRIRTRPPRLPRPRPRPGKMPRP
  shrunken log2 fold change: 0.181

## RRIRTRPPRLPRPRPRPGKNPRP
  shrunken log2 fold change: -0.24

## RRIRTRPPRLPRPRPRPGKSPRP
  shrunken log2 fold change: -0.402

## RRIRTRPPRLPRPRPRPGLIPRP
  shrunken log2 fold change: -1.04

## RRIRTRPPRLPRPRPRPGMNPRP
  shrunken log2 fold change: -0.15

## RRIRTRPPRLPRPRPRPGNCPRP
  shrunken log2 fold change: 0.0747

## RRIRTRPPRLPRPRPRPGNDPRP
  shrunken log2 fold change: -0.219

## RRIRTRPPRLPRPRPRPGNPPRP
  shrunken log2 fold change: -0.34

## RRIRTRPPRLPRPRPRPGPFPRP
  shrunken log2 fold change: 0.102

## RRIRTRPPRLPRPRPRPGQVPRP
  shrunken log2 fold change: -0.0192

## RRIRTRPPRLPRPRPRPGRMPRP
  shrunken log2 fold change: 0.232

## RRIRTRPPRLPRPRPRPGSTPRP
  shrunken log2 fold change: 0.857

## RRIRTRPPRLPRPRPRPGWRPRP
  shrunken log2 fold change: 0.69

## RRIRTRPPRLPRPRPRPGYGPRP
  shrunken log2 fold change: -0.139

## RRIRTRPPRLPRPRPRPHAHPRP
  shrunken log2 fold change: -0.117

## RRIRTRPPRLPRPRPRPHECPRP
  shrunken log2 fold change: -0.287

## RRIRTRPPRLPRPRPRPHEGPRP
  shrunken log2 fold change: -0.00663

## RRIRTRPPRLPRPRPRPHESPRP
  shrunken log2 fold change: -0.0124

## RRIRTRPPRLPRPRPRPHEVPRP
  shrunken log2 fold change: -0.00804

## RRIRTRPPRLPRPRPRPHEWPRP
  shrunken log2 fold change: 0.00742

## RRIRTRPPRLPRPRPRPHFPPRP
  shrunken log2 fold change: -0.199

## RRIRTRPPRLPRPRPRPHFVPRP
  shrunken log2 fold change: -0.239

## RRIRTRPPRLPRPRPRPHGDPRP
  shrunken log2 fold change: -0.146

## RRIRTRPPRLPRPRPRPHGKPRP
  shrunken log2 fold change: -0.209

## RRIRTRPPRLPRPRPRPHHAPRP
  shrunken log2 fold change: -0.00367

## RRIRTRPPRLPRPRPRPHKEPRP
  shrunken log2 fold change: -0.0263

## RRIRTRPPRLPRPRPRPHKRPRP
  shrunken log2 fold change: -0.0155

## RRIRTRPPRLPRPRPRPHLNPRP
  shrunken log2 fold change: -0.358

## RRIRTRPPRLPRPRPRPHLTPRP
  shrunken log2 fold change: 0.101

## RRIRTRPPRLPRPRPRPHLWPRP
  shrunken log2 fold change: 0.0316

## RRIRTRPPRLPRPRPRPHMHPRP
  shrunken log2 fold change: -0.543

## RRIRTRPPRLPRPRPRPHNKPRP
  shrunken log2 fold change: -0.702

## RRIRTRPPRLPRPRPRPHPWPRP
  shrunken log2 fold change: -0.0609

## RRIRTRPPRLPRPRPRPHSKPRP
  shrunken log2 fold change: -0.2

## RRIRTRPPRLPRPRPRPHSMPRP
  shrunken log2 fold change: -0.665

## RRIRTRPPRLPRPRPRPHTMPRP
  shrunken log2 fold change: -0.406

## RRIRTRPPRLPRPRPRPHWIPRP
  shrunken log2 fold change: -0.569

## RRIRTRPPRLPRPRPRPHYHPRP
  shrunken log2 fold change: -0.853

## RRIRTRPPRLPRPRPRPHYYPRP
  shrunken log2 fold change: -0.744

## RRIRTRPPRLPRPRPRPIARPRP
  shrunken log2 fold change: -0.00992

## RRIRTRPPRLPRPRPRPICKPRP
  shrunken log2 fold change: -0.0914

## RRIRTRPPRLPRPRPRPICVPRP
  shrunken log2 fold change: -0.289

## RRIRTRPPRLPRPRPRPIDTPRP
  shrunken log2 fold change: -0.157

## RRIRTRPPRLPRPRPRPIGQPRP
  shrunken log2 fold change: -0.0623

## RRIRTRPPRLPRPRPRPIHFPRP
  shrunken log2 fold change: -0.00174

## RRIRTRPPRLPRPRPRPIIVPRP
  shrunken log2 fold change: -0.0629

## RRIRTRPPRLPRPRPRPILFPRP
  shrunken log2 fold change: -0.209

## RRIRTRPPRLPRPRPRPIMDPRP
  shrunken log2 fold change: -0.233

## RRIRTRPPRLPRPRPRPIMQPRP
  shrunken log2 fold change: -0.201

## RRIRTRPPRLPRPRPRPIMYPRP
  shrunken log2 fold change: -0.347

## RRIRTRPPRLPRPRPRPIPPPRP
  shrunken log2 fold change: 0.384

## RRIRTRPPRLPRPRPRPIQVPRP
  shrunken log2 fold change: -0.0152

## RRIRTRPPRLPRPRPRPIQWPRP
  shrunken log2 fold change: 0.015

## RRIRTRPPRLPRPRPRPIRKPRP
  shrunken log2 fold change: 0.0309

## RRIRTRPPRLPRPRPRPISPPRP
  shrunken log2 fold change: -0.357

## RRIRTRPPRLPRPRPRPISQPRP
  shrunken log2 fold change: -0.0474

## RRIRTRPPRLPRPRPRPIYFPRP
  shrunken log2 fold change: -0.468

## RRIRTRPPRLPRPRPRPIYIPRP
  shrunken log2 fold change: -0.949

## RRIRTRPPRLPRPRPRPIYVPRP
  shrunken log2 fold change: -0.34

## RRIRTRPPRLPRPRPRPKAHPRP
  shrunken log2 fold change: 0.182

## RRIRTRPPRLPRPRPRPKCGPRP
  shrunken log2 fold change: -0.0177

## RRIRTRPPRLPRPRPRPKCPPRP
  shrunken log2 fold change: 0.281

## RRIRTRPPRLPRPRPRPKDDPRP
  shrunken log2 fold change: -0.124

## RRIRTRPPRLPRPRPRPKELPRP
  shrunken log2 fold change: 0.16

## RRIRTRPPRLPRPRPRPKERPRP
  shrunken log2 fold change: -0.0679

## RRIRTRPPRLPRPRPRPKFFPRP
  shrunken log2 fold change: -0.00469

## RRIRTRPPRLPRPRPRPKGCPRP
  shrunken log2 fold change: 0.00952

## RRIRTRPPRLPRPRPRPKGIPRP
  shrunken log2 fold change: 0.0275

## RRIRTRPPRLPRPRPRPKHYPRP
  shrunken log2 fold change: -0.339

## RRIRTRPPRLPRPRPRPKIKPRP
  shrunken log2 fold change: -0.561

## RRIRTRPPRLPRPRPRPKMSPRP
  shrunken log2 fold change: 0.116

## RRIRTRPPRLPRPRPRPKPNPRP
  shrunken log2 fold change: 0.186

## RRIRTRPPRLPRPRPRPKQSPRP
  shrunken log2 fold change: 0.113

## RRIRTRPPRLPRPRPRPKRIPRP
  shrunken log2 fold change: 0.0762

## RRIRTRPPRLPRPRPRPKRVPRP
  shrunken log2 fold change: -0.0636

## RRIRTRPPRLPRPRPRPKRWPRP
  shrunken log2 fold change: 0.723

## RRIRTRPPRLPRPRPRPKSEPRP
  shrunken log2 fold change: -0.144

## RRIRTRPPRLPRPRPRPKTVPRP
  shrunken log2 fold change: -0.0654

## RRIRTRPPRLPRPRPRPKTWPRP
  shrunken log2 fold change: -0.268

## RRIRTRPPRLPRPRPRPKTYPRP
  shrunken log2 fold change: -0.566

## RRIRTRPPRLPRPRPRPKVQPRP
  shrunken log2 fold change: -0.0279

## RRIRTRPPRLPRPRPRPKWFPRP
  shrunken log2 fold change: -0.0479

## RRIRTRPPRLPRPRPRPKYKPRP
  shrunken log2 fold change: -0.407

## RRIRTRPPRLPRPRPRPLANPRP
  shrunken log2 fold change: -0.105

## RRIRTRPPRLPRPRPRPLCCPRP
  shrunken log2 fold change: 1

## RRIRTRPPRLPRPRPRPLCMPRP
  shrunken log2 fold change: -0.385

## RRIRTRPPRLPRPRPRPLCQPRP
  shrunken log2 fold change: -0.0705

## RRIRTRPPRLPRPRPRPLCYPRP
  shrunken log2 fold change: -0.452

## RRIRTRPPRLPRPRPRPLDAPRP
  shrunken log2 fold change: -0.00457

## RRIRTRPPRLPRPRPRPLDVPRP
  shrunken log2 fold change: -0.594

## RRIRTRPPRLPRPRPRPLFCPRP
  shrunken log2 fold change: -0.287

## RRIRTRPPRLPRPRPRPLFDPRP
  shrunken log2 fold change: -0.451

## RRIRTRPPRLPRPRPRPLHIPRP
  shrunken log2 fold change: 0.0174

## RRIRTRPPRLPRPRPRPLKCPRP
  shrunken log2 fold change: -0.249

## RRIRTRPPRLPRPRPRPLLDPRP
  shrunken log2 fold change: 0.214

## RRIRTRPPRLPRPRPRPLNWPRP
  shrunken log2 fold change: -0.246

## RRIRTRPPRLPRPRPRPLRDPRP
  shrunken log2 fold change: 0.282

## RRIRTRPPRLPRPRPRPLSMPRP
  shrunken log2 fold change: -0.238

## RRIRTRPPRLPRPRPRPLSSPRP
  shrunken log2 fold change: -0.0339

## RRIRTRPPRLPRPRPRPLSVPRP
  shrunken log2 fold change: -0.0398

## RRIRTRPPRLPRPRPRPLTSPRP
  shrunken log2 fold change: -0.255

## RRIRTRPPRLPRPRPRPLTTPRP
  shrunken log2 fold change: -0.0573

## RRIRTRPPRLPRPRPRPLVSPRP
  shrunken log2 fold change: -0.0657

## RRIRTRPPRLPRPRPRPMAGPRP
  shrunken log2 fold change: -0.109
